# Reference: patent US20210238276A1 (INTEGRAL MOLECULAR, published 2021)
# Substitutions are numbered along the chain they refer to.
# B1: AB102 (Fc fusion)
# scFv: ALTQPSSVSANLGGTVKITCSGGGSYGYGWYQQKSPGSAPVTVIYSNDQRPSDIPSRFSGSKSGSTATLTITGVRAEDEAIYYCGSTDSDYVGIFGAGTTLTVLGQSSRSSGGGGSSGGGGSAVTLDESGGGLQTPGGTLSLVCKASGFDFSSYATIWVRQAPGKGLEWVAGISGTGTGSSTGYAPAVKGRATISRDNGQSTVRLQLNNLRAEDTGSYFCAKSTGYGDSWIYPDSIDAWGHGTEVIVSS
# notes: also called MAb AB102; not shown: Fc fragment of human IgG1, cloned in frame with the scFv
# Legend:
# Assay in all cases: flow cytometry, alanine-scan library in HEK-293T, with cytochalasin B
# hsGLUT4 L61A = molecular target: T1, hsGLUT4 L61A (human, UniProt P14672 1-509)
# T1 sequence: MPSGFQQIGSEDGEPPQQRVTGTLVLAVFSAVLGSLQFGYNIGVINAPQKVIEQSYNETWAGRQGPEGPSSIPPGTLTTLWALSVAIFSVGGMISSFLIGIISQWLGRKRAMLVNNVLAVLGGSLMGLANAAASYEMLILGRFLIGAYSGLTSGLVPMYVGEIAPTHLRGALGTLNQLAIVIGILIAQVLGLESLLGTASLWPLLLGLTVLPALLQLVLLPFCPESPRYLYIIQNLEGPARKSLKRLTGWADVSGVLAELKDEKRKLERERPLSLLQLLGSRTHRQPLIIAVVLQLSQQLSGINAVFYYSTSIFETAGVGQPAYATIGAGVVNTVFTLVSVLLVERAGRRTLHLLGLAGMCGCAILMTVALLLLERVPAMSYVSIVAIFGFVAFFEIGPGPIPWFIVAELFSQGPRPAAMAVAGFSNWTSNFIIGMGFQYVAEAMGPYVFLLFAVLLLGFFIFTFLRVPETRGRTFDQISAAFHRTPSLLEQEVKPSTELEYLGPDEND
# Method: (§1) Because of the state-dependence of the isolated MAbs, we next wished to understand the mechanism by which each MAb could recognize GLUT4 in its different conformations. The residues required for binding of each MAb were determined using shotgun mutagenesis comprehensive alanine scanning (Davidson E & Doranz B J (2014) A High-Throughput Shotgun Mutagenesis Approach to Mapping B-cell Antibody Epitopes. Immunology, which is hereby incorporated by reference in its entirety). All residues of hsGLUT4 were individually mutated to alanine, with existing alanines changed to serines. Mutations were obtained for 508 of the 509 residues of GLUT4 (excluding the initiating methionine). The entire mutation library was transfected into human HEK-293T cells in a 384-well array format (one clone per well) and assessed for immunoreactivity using high-throughput flow cytometry.
# (§2) HEK-293T cells were transfected by CaPO₄ with plasmids in 6-well culture plates (Falcon) at 750,000 cells/well. At 48 hours post transfection, cells were stained with anti-V5 and anti-GLUT4 MAbs (purified scFv, 2 μg/ml) followed by biotinylated goat anti-mouse or human antibody (1:500) and streptavidin-PerCP (1:500). Fluorescence was detected using an Intellicyt high-throughput flow cytometer (HTFC; Intellicyt, Albuquerque, N. Mex.). For cell permeabilization, cells were treated with saponin at 0.1% in PBS for 20 minutes. To discriminate intact (live) and permeabilized (dead) cells without the use of detergent, propidium iodide (PI) was added to HEK-293T cells at 1 ug/ml just prior to flow cytometry. Where indicated, cytochalasin B (Sigma) was used at a final concentration of 10 uM and phloretin (Sigma) was used at a final concentration of 100 uM, each added in 10% NGS for 30 minutes prior to antibody staining as well as included with the primary antibody.
# hsGLUT4 G414A = molecular target: T2, hsGLUT4 G414A (human, UniProt P14672 1-509)
# T2 sequence: T1 sequence with A61L, G414A
# Method: as §1, §2
# hsGLUT4 Q298A = molecular target: T3, hsGLUT4 Q298A (human, UniProt P14672 1-509)
# T3 sequence: T1 sequence with A61L, Q298A
# Method: as §1, §2
# hsGLUT4 S310A = molecular target: T4, hsGLUT4 S310A (human, UniProt P14672 1-509)
# T4 sequence: T1 sequence with A61L, S310A
# Method: as §1, §2
binder,measurement,setting,value
B1,% of binding to wild type GLUT4,hsGLUT4 L61A,69%
same,% of binding to wild type GLUT4,hsGLUT4 G414A,23%
same,% of binding to wild type GLUT4,hsGLUT4 Q298A,107%
same,% of binding to wild type GLUT4,hsGLUT4 S310A,20%
